From patent publication US20220119522A1 (DENALI THERAPEUTICS, published 2022)

T1: human TREM2 on the cell surface (human, UniProt Q9NZC2 19-230)
T1 construct: also called surface TREM2; TREM2 expressed in HEK293-H6 cells
T1 sequence: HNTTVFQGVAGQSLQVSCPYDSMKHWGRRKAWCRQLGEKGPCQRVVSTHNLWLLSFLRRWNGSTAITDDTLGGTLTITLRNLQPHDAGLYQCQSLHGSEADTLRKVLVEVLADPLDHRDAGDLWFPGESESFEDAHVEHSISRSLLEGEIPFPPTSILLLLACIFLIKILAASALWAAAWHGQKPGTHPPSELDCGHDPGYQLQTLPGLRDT

T2: His-tagged human TREM2 ECD (human, UniProt Q9NZC2 19-172)
T2 construct: Biacore and HDX say only recombinant human TREM2 (ECD); also called recombinant human TREM2; hTREM2
T2 sequence: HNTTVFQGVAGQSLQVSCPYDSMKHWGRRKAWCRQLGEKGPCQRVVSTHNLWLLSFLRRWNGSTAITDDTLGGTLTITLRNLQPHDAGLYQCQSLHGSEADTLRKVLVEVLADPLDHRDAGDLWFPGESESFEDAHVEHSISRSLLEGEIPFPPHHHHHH


Columns and labels:
[1] = molecular target: T1, human TREM2 on the cell surface; assay: flow cytometry, dose-titrated binding to HEK293-H6 cells
Description: After incubation, the cells were centrifuged and washed in FACS buffer (PBS+0.5% BSA) twice. Mixed cells were resuspended in FACS buffer with human Trustain FcX solution (Biolegend, Catalog No. 422302) at a density of 10⁶/mL per cell line. The mixed cell lines were seeded at 200,000 cells per well in a 96-well round-bottom plate and incubated for 20 minutes at room temperature. After incubation, the cells were centrifuged and incubated with anti-TREM2 antibodies of about 0-200 nM dose titration for 45 minutes on ice. After incubation, the cells were centrifuged and washed with FACS buffer three times. […] After incubation, the cells were washed with FACS buffer three times, resuspended in 100 μL of FACS buffer, and analyzed by flow cytometry (BD FACSCanto II, San Jose, Calif.), for which 30,000 events were obtained for each sample. Mean fluorescence intensity per cells were calculated by FlowJo software and used for generating dose response binding curve.
(§1) Sequence optimization was conducted by searching within CDR sequences for residues that are susceptible to chemical modification (e.g., asparagine deamidation motifs (NG), aspartic acid isomerization motifs (DS), and potential oxidation residues (tryptophan (W) and methionine (M)) and making amino acid substitutions with conservative and germline residues to remove such sequence liabilities. Humanized and sequence-optimized variants of anti-TREM2 antibodies were then analyzed for binding kinetics using Biacore and dose-titrated cell binding to HEK293-H6 cells (see, Example 1 for representative protocols).

[2] = molecular target: T2, His-tagged human TREM2 ECD; assay: SPR (Biacore)
Description: Surface plasmon resonance (Biacore™ 8K instrument) was used to measure anti-TREM2 antibody affinities for human and cynomolgus TREM2 ECD. Anti-TREM2 antibodies were captured using Human Fab Capture Kit (GE Healthcare Life Sciences, Catalog No. 28958325) on a Biacore Series S CM5 sensor chip (GE Healthcare Life Sciences, Catalog No. 29149604). Serial 3-fold dilutions of recombinant human or cynomolgus TREM2 were injected at a flow rate of 30 μL/min. Antibody binding was monitored for 300 seconds, followed by monitoring of antibody dissociation for 600+seconds in HBS-EP+ running buffer (GE Healthcare Life Sciences, Catalog No. BR100669). The binding response was corrected by subtracting the RU value from a blank flow cell. A 1:1 Languir model of simultaneous fitting of kₒₙ and koff was used for kinetics analysis.
as §1

Binder | EC50 [1] [nM] | Kd [2] [nM]
CL0020123-1 (antibody, V domains shown, Humanized variant of CL0020123 (hVH NGDS/2 m, Vk graft); also called Clone CL0020123-1) VH: QVQLVQSGAEVKKPGASVKVSCKASGFSIEDFYIHWVRQAPGQGLEWMGWIDPENGDSKYAPKFQGRATITADTSTSTAYMELSSLRSEDTAVYYCHADHGNYGSTMDYWGQGTLVTVSS VL: DIQMTQSPSSLSASVGDRVTITCHASQHINVWLSWYQQKPGKAPKLLIYKASNLHTGVPSRFSGSGSGTDFTLTISSLQPEDFATYYCQQGQTYPRTFGQGTKVEIK | 0.25 | 0.14
CL0020123-2 (antibody, V domains shown, Humanized variant of CL0020123 (hVH NGDS/1 m, Vk graft); also called Clone CL0020123-2) VH: QVQLVQSGAEVKKPGASVKVSCKASGFSIEDFYIHWVRQAPGQGLEWMGWIDPENGDSKYAPKFQGRVTITADTSTSTAYMELSSLRSEDTAVYYCHADHGNYGSTMDYWGQGTLVTVSS VL: DIQMTQSPSSLSASVGDRVTITCHASQHINVWLSWYQQKPGKAPKLLIYKASNLHTGVPSRFSGSGSGTDFTLTISSLQPEDFATYYCQQGQTYPRTFGQGTKVEIK | 0.23 | 0.18
CL0020123-3 (antibody, V domains shown, Humanized variant of CL0020123 (hVH QGDS/2 m, Vk graft); also called Clone CL0020123-3) VH: QVQLVQSGAEVKKPGASVKVSCKASGFSIEDFYIHWVRQAPGQGLEWMGWIDPEQGDSKYAPKFQGRATITADTSTSTAYMELSSLRSEDTAVYYCHADHGNYGSTMDYWGQGTLVTVSS VL: DIQMTQSPSSLSASVGDRVTITCHASQHINVWLSWYQQKPGKAPKLLIYKASNLHTGVPSRFSGSGSGTDFTLTISSLQPEDFATYYCQQGQTYPRTFGQGTKVEIK | 0.24 | 0.4
CL0020188-1 (antibody, V domains shown, also called Clone CL0020188-1) VH: EVQLVESGGGLVQPGGSLRLSCAASGFTFTDFYMSWVRQAPGKGLEWVSVIRNKANGYTAGYNPSVKGRFTISRDNSKNTLYLQMNSLRAEDTAVYYCARLTYGFDYWGQGTLVTVSS VL: DIVMTQTPLSLPVTPGEPASISCQSSKSLLHSNGKTYLNWYLQKPGQSPQLLIYWMSTRASGVPDRFSGSGSGTDFTLKISRVEAEDVGVYYCQQFLEYPFTFGQGTKVEIK | 0.42 | 2.3
CL0020188-3 (antibody, V domains shown, Humanized variant of CL0020188 (hVH NG/graft, hVL TG/graft); also called Clone CL0020188-3) VH: EVQLVESGGGLVQPGGSLRLSCAASGFTFTDFYMSWVRQAPGKGLEWVSVIRNKANGYTAGYNPSVKGRFTISRDNSKNTLYLQMNSLRAEDTAVYYCARLTYGFDYWGQGTLVTVSS VL: DIVMTQTPLSLPVTPGEPASISCQSSKSLLHSTGKTYLNWYLQKPGQSPQLLIYWMSTRASGVPDRFSGSGSGTDFTLKISRVEAEDVGVYYCQQFLEYPFTFGQGTKVEIK | 0.64 | 6.8
CL0020188-5 (antibody, V domains shown, Humanized variant of CL0020188 (hVH NA/graft, hVL NG/graft); also called Clone CL0020188-5) VH: EVQLVESGGGLVQPGGSLRLSCAASGFTFTDFYMSWVRQAPGKGLEWVSVIRNKANAYTAGYNPSVKGRFTISRDNSKNTLYLQMNSLRAEDTAVYYCARLTYGFDYWGQGTLVTVSS VL: DIVMTQTPLSLPVTPGEPASISCQSSKSLLHSNGKTYLNWYLQKPGQSPQLLIYWMSTRASGVPDRFSGSGSGTDFTLKISRVEAEDVGVYYCQQFLEYPFTFGQGTKVEIK | 0.45 | 5.1

Continued by falling EC50 [1], values first:

EC50 [1] [nM] | Kd [2] [nM] | Binder
0.51 | 7.3 | CL0020188-8 (antibody, V domains shown, Humanized variant of CL0020188 (hVH NA/3 m, hVL TG/graft); also called Clone CL0020188-8) VH: EVQLVESGGGLVQPGGSLRLSCAGSGFTFTDFYMSWVRQAPGKGPEWLSVIRNKANAYTAGYNPSVKGRFTISRDNSKNTLYLQMNSLRAEDTAVYYCARLTYGFDYWGQGTLVTVSS VL: DIVMTQTPLSLPVTPGEPASISCQSSKSLLHSTGKTYLNWYLQKPGQSPQLLIYWMSTRASGVPDRFSGSGSGTDFTLKISRVEAEDVGVYYCQQFLEYPFTFGQGTKVEIK
0.38 | 0.39 | CL0020123-8 (antibody, V domains shown, Humanized variant of CL0020123 (hVH QGES/1 m, Vk graft); also called Clone CL0020123-8) VH: QVQLVQSGAEVKKPGASVKVSCKASGFSIEDFYIHWVRQAPGQGLEWMGWIDPEQGESKYAPKFQGRVTITADTSTSTAYMELSSLRSEDTAVYYCHADHGNYGSTMDYWGQGTLVTVSS VL: DIQMTQSPSSLSASVGDRVTITCHASQHINVWLSWYQQKPGKAPKLLIYKASNLHTGVPSRFSGSGSGTDFTLTISSLQPEDFATYYCQQGQTYPRTFGQGTKVEIK
0.31 | 4 | CL0020188-6 (antibody, V domains shown, Humanized variant of CL0020188 (hVH NA/3 m, hVL NG/graft); also called Clone CL0020188-6) VH: EVQLVESGGGLVQPGGSLRLSCAGSGFTFTDFYMSWVRQAPGKGPEWLSVIRNKANAYTAGYNPSVKGRFTISRDNSKNTLYLQMNSLRAEDTAVYYCARLTYGFDYWGQGTLVTVSS VL: DIVMTQTPLSLPVTPGEPASISCQSSKSLLHSNGKTYLNWYLQKPGQSPQLLIYWMSTRASGVPDRFSGSGSGTDFTLKISRVEAEDVGVYYCQQFLEYPFTFGQGTKVEIK
0.29 | 0.32 | CL0020123-6 (antibody, V domains shown, Humanized variant of CL0020123 (hVH QGDS/1 m, Vk graft); also called Clone CL0020123-6) VH: QVQLVQSGAEVKKPGASVKVSCKASGFSIEDFYIHWVRQAPGQGLEWMGWIDPEQGDSKYAPKFQGRVTITADTSTSTAYMELSSLRSEDTAVYYCHADHGNYGSTMDYWGQGTLVTVSS VL: DIQMTQSPSSLSASVGDRVTITCHASQHINVWLSWYQQKPGKAPKLLIYKASNLHTGVPSRFSGSGSGTDFTLTISSLQPEDFATYYCQQGQTYPRTFGQGTKVEIK
0.26 | 3.4 | CL0020188-2 (antibody, V domains shown, Humanized variant of CL0020188 (hVH NG/3 m, hVL NG/graft); also called Clone CL0020188-2) VH: EVQLVESGGGLVQPGGSLRLSCAGSGFTFTDFYMSWVRQAPGKGPEWLSVIRNKANGYTAGYNPSVKGRFTISRDNSKNTLYLQMNSLRAEDTAVYYCARLTYGFDYWGQGTLVTVSS VL: DIVMTQTPLSLPVTPGEPASISCQSSKSLLHSNGKTYLNWYLQKPGQSPQLLIYWMSTRASGVPDRFSGSGSGTDFTLKISRVEAEDVGVYYCQQFLEYPFTFGQGTKVEIK
0.17 | 0.17 | CL0020123-4 (antibody, V domains shown, Humanized variant of CL0020123 (hVH NGES/2 m, Vk graft); also called Clone CL0020123-4) VH: QVQLVQSGAEVKKPGASVKVSCKASGFSIEDFYIHWVRQAPGQGLEWMGWIDPENGESKYAPKFQGRATITADTSTSTAYMELSSLRSEDTAVYYCHADHGNYGSTMDYWGQGTLVTVSS VL: DIQMTQSPSSLSASVGDRVTITCHASQHINVWLSWYQQKPGKAPKLLIYKASNLHTGVPSRFSGSGSGTDFTLTISSLQPEDFATYYCQQGQTYPRTFGQGTKVEIK
